Experimental data reported in PMC11053023, “Mechanism of Ψ-Pro/C-degron recognition by the CRL2^FEM1B ubiquitin ligase” (Nature Communications, 2024).

Target: FEM1B-EB-EC ternary complex (human) (UniProt Q9UK73)
Experiment: SEC; peaks of the purified FEM1B-EB-EC complexes (Supplementary Fig. 1g); how the masses were found is not given

stoichiometry N: 2
Substance: FEM1B-EB-EC ternary complex (from UniProt Q9UK73 1-627; Q15370 1-118; Q15369 17-112)
